From the supplement of paper PMC10126150
± gives the standard deviation of the averaged measurements.

Each sequence was assayed on ATP (assay: switch fluorescence ratio, 500 uM ATP over buffer (Cy3 cluster intensity, sum of 5 cycles each) (fold (ratio)); higher = stronger signal-on switching upon ATP binding; sequences stand for … in TCGTCGGCAGCGTCAGATGTGTATAAGAGACAGTTTTTTTTTTTTTTTTTTTTTTTTT…TC). Conditions: aptamer strand: ATP DNA aptamer (quencher-CACCTGGGGGAGTATTGCGGAGGAAGG + anchor), 100 nM annealed; ATP concentration: 500 uM.
Summary of the method: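 Exposure to 500 uM ATP lasted 15 min at 22 °C before imaging, and a selection-buffer image was taken beforehand, for Cy3-labelled switching-strand clusters on a modified Illumina MiSeq flow-cell annealed to 100 nM quencher-labelled ATP aptamer. Five buffer/ATP cycles were run with NaOH stripping and re-annealing between them. The fluorescence ratio per cluster is summed target-cycle over summed buffer-cycle Cy3 intensity, averaged per switch-domain sequence. Clusters outside 100-1000 RFU were excluded.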

Point of comparison: TCGTTCATGG, switch fluorescence ratio 0.979 ± 0.039. Against it:
- GGGGGGCCGC — within error, 1.03 ± 0.081
- TATAGACTTA — within error, 0.994 ± 0.026
- GCCGTAGTCG — within error, 1.03 ± 0.042
- GCGTCTATTA — within error, 0.995 ± 0.012
- CACGTAAAAA — within error, 1.16 ± 0.19
- CTGCAACTAA — higher, 2.27 ± 0.054
- AGTATTACGG — within error, 0.9989 ± 0.0088
- CGATGTGGGT — within error, 0.989 ± 0.044
- GCATATGTCG — higher, 1.097 ± 0.0042
- TTAAAATCAC — within error, 1.09 ± 0.077
- GGCGGACGGA — within error, 1.07 ± 0.089
- TCGGTTTAGC — within error, 1.02 ± 0.035
- TTCGAGTCGG — within error, 0.967 ± 0.011
- GTGGGGGCGT — within error, 1 ± 0.026
- GCTTGGGGTT — within error, 0.98 ± 0.021
- GGGACGGGGG — within error, 1.06 ± 0.16
- CGGGGCGGTC — within error, 0.96 ± 0.047
- TTTTACTTGT — within error, 1.025 ± 0.0037
- TTTGTTTAAT — within error, 1.002 ± 0.0012
- TCGCCCGCGA — higher, 1.51 ± 0.063
- AGCTGTGACC — within error, 1 ± 0.012
- GTTGTTTTGA — within error, 0.994 ± 0.022
- AAAAGCTCGT — within error, 1 ± 0.05
- ATATTTGGAG — within error, 0.9981 ± 0.003
- TGGGAACCGT — within error, 1.18 ± 0.32
- TTTTTGTGCT — within error, 0.996 ± 0.032
- TATTGTATGA — higher, 1.029 ± 0.0049
- GCATTCAGGG — within error, 1.09 ± 0.14
- TGGGCGTAAG — within error, 1.02 ± 0.027
- TTAATGGTTG — within error, 0.975 ± 0.032
- TGTTATTGAA — within error, 0.992 ± 0.046
- GAGTGAGGGC — within error, 0.9957 ± 0.003
- GCTAGGCCTT — within error, 0.9957 ± 0.0082
- TGTGCAATGT — higher, 1.3 ± 0.029
- GTTTCTTGGG — within error, 0.995 ± 0.056
- TAAGTATAAT — within error, 0.999 ± 0.017
- AACATGTTGG — within error, 0.991 ± 0.047
- TTTGCAAAAA — within error, 1.06 ± 0.082
- TTAAAAACCT — higher, 1.65 ± 0.62
- CATCGTATGG — within error, 0.954 ± 0.022
- AAGGATTATG — within error, 1 ± 0.07
- TAACTGTTCC — within error, 1.12 ± 0.11
- TGGTCAGGGG — higher, 1.09 ± 0.056
- CTGGATCCTG — within error, 1.02 ± 0.053
- GTGTGGGAGC — within error, 1 ± 0.06
- TGTGGTGCGA — within error, 0.995 ± 0.029
- TAGGATGAGT — within error, 0.99997 ± 0.00035
- ATTATTTTGG — within error, 1.01 ± 0.018
- TTGGAGGCGT — within error, 0.9814 ± 0.0057
- GTTATGTTTG — within error, 1.01 ± 0.045
- CTAGCGGCCA — within error, 0.991 ± 0.012
- TTATCCAGCT — within error, 1.01 ± 0.012
- CTAGAGGCTG — within error, 1.03 ± 0.073
- CCGCGAGCTA — higher, 4.52 ± 1.1
- CCCTTGGATA — within error, 0.993 ± 0.021
- TGCGACAGGG — within error, 0.988 ± 0.013
- TATGTACTGT — higher, 1.09 ± 0.03
- GAGCCCAATG — within error, 1.0092 ± 0.001
- TTGCAAGGGC — within error, 1.08 ± 0.074
- TTGCTGTTAC — within error, 1.15 ± 0.15
- TACGTATAGG — higher, 1.098 ± 0.0028
- TGTTGTGATT — within error, 0.994 ± 0.023
- ATTAGGGACT — within error, 0.992 ± 0.035
- GGGGGGACAA — within error, 1 ± 0.013
- CTTTATTGGG — within error, 0.972 ± 0.02
- CCACTAGACC — higher, 1.14 ± 0.026
- TATGGCCAAT — within error, 1.03 ± 0.03
- AATGGAGATG — within error, 1 ± 0.041
- ATTTCCCTGT — within error, 1.01 ± 0.044
- GTTTATCCGT — within error, 0.996 ± 0.055
- TTAGAGGGTG — higher, 1.12 ± 0.018
- GTGTTTAGGA — within error, 1.02 ± 0.018
- TCTAAGCTGG — within error, 0.988 ± 0.014
- CAGGCTACCT — higher, 1.2 ± 0.092
- TGTGGCAAGA — within error, 1.14 ± 0.14
- TTAGGGTGCC — within error, 1.02 ± 0.034
- AAAGAATGGG — within error, 0.978 ± 0.017
- TTGTTTTTAC — higher, 1.07 ± 0.052
- CGTGGATTCC — higher, 1.03 ± 0.011
- TATTGAGGGT — within error, 0.981 ± 0.034
- AATAGGGGGG — within error, 1.01 ± 0.024
- TGGGGGAACG — within error, 0.984 ± 0.026
- TTAGGCTTGG — within error, 1.06 ± 0.067
- TTATACGTTG — within error, 1.02 ± 0.019
- TCTGGGGTTA — within error, 1 ± 0.018
- TGCGTGTCTT — within error, 1.01 ± 0.018
- TTGTTAGATG — within error, 1.011 ± 0.0066
- TTGGGTTGAG — within error, 0.999 ± 0.016
- TTCAACATTT — higher, 1.04 ± 0.011
- TGGCAGTGTG — higher, 1.05 ± 0.019
- ATGCTGGGTA — within error, 0.997 ± 0.026
- AGAAGCCCCT — within error, 0.992 ± 0.031
- GACCAAGAAT — higher, 1.06 ± 0.03
- TTGAAAAAGT — within error, 0.992 ± 0.018
- ACGGGTGTCC — within error, 0.995 ± 0.066
- GGGTTAGGTG — higher, 1.14 ± 0.065
- GCTGTAGGGG — within error, 1.02 ± 0.081
- CTATTTCGGG — the same, 0.979 ± 0.052
- CGGGTAATGT — within error, 0.978 ± 0.029
- TTCGTTTGGG — within error, 0.967 ± 0.047
- ACCGGGCGGC — within error, 1.05 ± 0.033
- TTATGATTTG — within error, 1.02 ± 0.02
- AGGCTCACAA — higher, 1.07 ± 0.03
- ATTTCTGGGA — within error, 0.982 ± 0.031
- ATTGGGGGTG — higher, 1.04 ± 0.012
- GCGAGATGAT — within error, 0.977 ± 0.022
- GTAGTATGAG — within error, 0.999 ± 0.014
- TATCGCGTTC — within error, 1.09 ± 0.078
- CTTGTCTGAG — within error, 0.9818 ± 0.0096
- ATTTGGGGGC — within error, 0.973 ± 0.057
- ATCCGGTTCG — within error, 0.9946 ± 0.0095
- GCGCTAGGGC — within error, 1 ± 0.014
- ATGGTAAAAA — within error, 1.05 ± 0.1
- TTGGCCGTAG — within error, 1.01 ± 0.028
- CGTCGGTTAG — within error, 1.01 ± 0.015
- TATTTACTCG — within error, 1.05 ± 0.073
- GCAAGGGTGT — higher, 1.153 ± 0.0013
- TTTAAGGGG — within error, 1.02 ± 0.051
- CTTAGGAGGG — within error, 0.997 ± 0.013
- TTTTGTTCTT — within error, 0.984 ± 0.012
- GGGGAACACT — within error, 1.01 ± 0.022
- GTGGCTGTTT — within error, 1.02 ± 0.02
- GATTGTAGCT — within error, 0.987 ± 0.023
- TGATTGTGGC — within error, 0.9557 ± 0.0095
- GGGGGGGTAC — within error, 1.23 ± 0.62
- ACGCTAGCCT — higher, 1.18 ± 0.032
- AAAACAGGAT — within error, 0.9954 ± 0.0095
- CCACACGTTT — higher, 1.13 ± 0.076
- GGGGAAAAGA — within error, 1 ± 0.025
- ATGGGTAGAG — within error, 1 ± 0.022
- CACCGGCTTT — within error, 1.1 ± 0.14
- TATTAATGCT — higher, 1.028 ± 0.0052
- ACGTCAAGGT — higher, 1.0871 ± 0.00061
- TCGTTTATCA — within error, 0.9771 ± 0.0073
- TTTGATAATT — within error, 1.07 ± 0.15
- TAAAAGGGGT — within error, 1.01 ± 0.05
- GAACTCGATG — within error, 1.018 ± 0.0091
- GGTGCTTAAT — within error, 1 ± 0.037
- ATCTACGAAA — higher, 1.31 ± 0.03
- GCTATATACA — higher, 1.04 ± 0.014
- ATTATTCACC — within error, 1.01 ± 0.02
- TTCCGGGTAC — higher, 3.27 ± 0.22
- ATAGTATTAT — within error, 0.968 ± 0.015
- TCTTTACTAC — within error, 1.08 ± 0.081
- GTAAATTAGT — within error, 1.02 ± 0.04
- TGTTTGGCTT — within error, 0.9619 ± 0.0079
- ATTACGTACT — higher, 1.77 ± 0.11
- AAAATGTAAG — within error, 1.011 ± 0.0057
- TTCTGGGGAT — within error, 1.009 ± 0.0014
- CTTTTGTGTC — within error, 0.9866 ± 0.0071
- AGTTCTTGGC — within error, 1.02 ± 0.0042
- ATTTTGATAT — within error, 1.01 ± 0.018
- TACGGGGTAG — within error, 0.996 ± 0.028
- AGTGCTTTTG — within error, 0.978 ± 0.018
- GGTCACAAGA — within error, 1 ± 0.032
- AGACAGGGAC — higher, 1.04 ± 0.016
